US20020099180A1 (published 2002)

B1: scFv #18 (VH #18, IgG; VL III43; murine HCDR3 F19) (scFv)
scFv: QVQLVQSGAELKKPGSSMKVSCKASGDTFSTYSINWVRQAPGQGLEWMGVINPSGGSTSYAQKFQGRVTMTRDTSTSTVYMELSSLRSEDTAVYYCARRRIAYGYDEGHAMDYWGQGTLVTVSSASTKGPKLEEGEFSEARVDIQMTQSPSSLSASTGDRVTITCRASQDISSYLAWYQQAPGKAPHLLMSGATTLQTGVPSRFSGSGSGTDFTLTISSLQAEDVAVYYCQQYYRTPFTFGQGTKLEIKRTVAAPSVFAA
notes: Humanised monovalent scFv, detected through the c-myc tag with 9E10; also called clone #18; VH18 YOL III43; not shown: c-myc and HIS6 tags (pOPE101), or pIII in the screening ELISA
B2: scFv #34 (VH #34, IgG; VL III43; murine HCDR3 F19) (scFv)
scFv: QVQLQQSGAEVKKPGSSVKVSCKASGGTFSTHTINWVRQAPGQGLEWMGGIAPMFGTANYAQKFQGRVTITADKSTSTAYMEMSSLRSDDTAVYYCARRRIAYGYDEGHAMDYWGQGTLVTVSSASTKGPKLEEGEFSEARVDIQMTQSPSSLSASTGDRVTITCRASQDISSYLAWYQQAPGKAPHLLMSGATTLQTGVPSRFSGSGSGTDFTLTISSLQAEDVAVYYCQQYYRTPFTFGQGTKLEIKRTVAAPSVFAA
notes: Humanised monovalent scFv, detected through the c-myc tag with 9E10; also called clone #34; VH34YOL III43; not shown: c-myc and HIS6 tags (pOPE101), or pIII in the screening ELISA

Molecular target: T1, tetanus toxoid (UniProt P04958 2-1315)
T1 construct: also called TTX
T1 sequence (P04958 2-457 limits assumed, chain 1 of 2): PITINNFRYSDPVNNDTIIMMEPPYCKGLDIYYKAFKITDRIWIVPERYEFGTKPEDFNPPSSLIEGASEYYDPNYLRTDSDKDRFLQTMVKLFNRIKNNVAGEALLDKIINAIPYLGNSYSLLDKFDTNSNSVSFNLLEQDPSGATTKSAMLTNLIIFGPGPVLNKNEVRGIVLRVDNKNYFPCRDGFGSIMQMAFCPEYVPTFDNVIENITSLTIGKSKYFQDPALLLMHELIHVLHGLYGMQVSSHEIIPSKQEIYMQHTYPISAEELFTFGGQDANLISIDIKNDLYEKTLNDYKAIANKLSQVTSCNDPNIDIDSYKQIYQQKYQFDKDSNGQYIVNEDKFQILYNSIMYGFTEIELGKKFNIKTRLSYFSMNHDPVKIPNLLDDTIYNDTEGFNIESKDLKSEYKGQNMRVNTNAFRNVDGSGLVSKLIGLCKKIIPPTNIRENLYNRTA
T1 sequence (P04958 458-1315 limits assumed, chain 2 of 2): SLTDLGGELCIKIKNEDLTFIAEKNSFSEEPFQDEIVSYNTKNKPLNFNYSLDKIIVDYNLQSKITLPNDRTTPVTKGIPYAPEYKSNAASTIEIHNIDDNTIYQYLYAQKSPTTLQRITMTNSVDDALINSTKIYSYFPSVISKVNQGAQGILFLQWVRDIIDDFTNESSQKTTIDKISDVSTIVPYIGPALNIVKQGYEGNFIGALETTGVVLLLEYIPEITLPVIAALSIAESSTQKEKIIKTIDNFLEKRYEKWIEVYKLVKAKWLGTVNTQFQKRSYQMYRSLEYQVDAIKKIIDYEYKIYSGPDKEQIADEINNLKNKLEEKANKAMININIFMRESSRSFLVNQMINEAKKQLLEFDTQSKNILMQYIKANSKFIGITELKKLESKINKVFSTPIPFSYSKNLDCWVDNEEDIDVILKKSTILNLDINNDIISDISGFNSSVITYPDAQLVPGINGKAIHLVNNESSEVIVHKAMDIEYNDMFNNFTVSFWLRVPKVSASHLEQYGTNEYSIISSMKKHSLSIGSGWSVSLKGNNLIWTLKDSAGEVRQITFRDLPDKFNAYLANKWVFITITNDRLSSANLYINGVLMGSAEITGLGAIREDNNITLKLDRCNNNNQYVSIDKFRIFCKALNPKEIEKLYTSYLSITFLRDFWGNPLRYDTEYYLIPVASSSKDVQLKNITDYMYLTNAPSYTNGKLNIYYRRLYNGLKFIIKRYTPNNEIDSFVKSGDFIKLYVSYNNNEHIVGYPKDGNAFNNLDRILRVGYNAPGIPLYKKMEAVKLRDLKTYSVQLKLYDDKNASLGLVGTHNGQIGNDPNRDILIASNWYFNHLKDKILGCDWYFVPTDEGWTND
Assay: ELISA, wells coated with FAP or irrelevant Ag as for the chimeric scFv

Binder	binding result
B1	no binding
B2	no binding
